Laboratory results taken from paper PMC11717359, “A new pipeline SPICE identifies novel JUN-IKZF1 composite elements”.

Columns and labels:
[1] = molecular target: c-JUN, recombinant;c-FOS, recombinant (Homo sapiens;Homo sapiens, UniProt P05412;P01100 1-331;1-380, |); experiment: EMSA; 300 ng AP1; EMSA per LI-COR kit protocol (829-07910), 100 nM IR700 probe, 4-12% TBE gel in 0.5x TBE; binding buffer, pH and temperature not stated; settings: protein: commercial;commercial; tags: ;; copies: 1;1; label: IRDye 700
Chain of c-JUN, recombinant;c-FOS, recombinant (P05412 whole entry, chain 1 of 2): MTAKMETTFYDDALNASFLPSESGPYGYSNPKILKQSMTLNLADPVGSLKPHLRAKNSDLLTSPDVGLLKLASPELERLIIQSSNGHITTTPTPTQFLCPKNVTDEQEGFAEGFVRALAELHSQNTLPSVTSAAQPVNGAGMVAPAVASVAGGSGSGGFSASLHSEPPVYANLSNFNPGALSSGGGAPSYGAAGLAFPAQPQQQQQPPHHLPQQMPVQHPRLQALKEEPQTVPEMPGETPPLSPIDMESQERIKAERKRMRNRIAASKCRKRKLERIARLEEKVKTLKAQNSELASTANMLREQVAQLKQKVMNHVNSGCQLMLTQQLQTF
Chain of c-JUN, recombinant;c-FOS, recombinant (P01100 whole entry, chain 2 of 2): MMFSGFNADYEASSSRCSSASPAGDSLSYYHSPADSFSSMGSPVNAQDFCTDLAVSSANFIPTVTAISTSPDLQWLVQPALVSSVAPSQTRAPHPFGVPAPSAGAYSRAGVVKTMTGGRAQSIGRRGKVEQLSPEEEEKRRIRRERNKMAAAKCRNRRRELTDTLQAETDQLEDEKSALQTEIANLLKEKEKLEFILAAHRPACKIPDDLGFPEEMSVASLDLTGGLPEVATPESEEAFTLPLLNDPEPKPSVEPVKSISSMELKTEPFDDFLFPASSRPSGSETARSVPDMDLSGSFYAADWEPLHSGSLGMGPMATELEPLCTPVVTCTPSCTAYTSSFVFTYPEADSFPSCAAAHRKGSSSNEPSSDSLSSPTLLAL

[2] = molecular target: IKZF1 (Ikaros), recombinant;c-JUN, recombinant;c-FOS, recombinant (Homo sapiens;Homo sapiens;Homo sapiens, UniProt Q13422;P05412;P01100 1-519;1-331;1-380, ||); experiment: EMSA; 300 ng AP1 + 1 ug IKZF1; stronger than AP1 alone; EMSA per LI-COR kit protocol (829-07910), 100 nM IR700 probe, 4-12% TBE gel in 0.5x TBE; binding buffer, pH and temperature not stated; settings: protein: commercial;commercial;commercial; tags: ;;; label: IRDye 700
Chain of IKZF1 (Ikaros), recombinant;c-JUN, recombinant;c-FOS, recombinant (Q13422 whole entry, chain 1 of 3): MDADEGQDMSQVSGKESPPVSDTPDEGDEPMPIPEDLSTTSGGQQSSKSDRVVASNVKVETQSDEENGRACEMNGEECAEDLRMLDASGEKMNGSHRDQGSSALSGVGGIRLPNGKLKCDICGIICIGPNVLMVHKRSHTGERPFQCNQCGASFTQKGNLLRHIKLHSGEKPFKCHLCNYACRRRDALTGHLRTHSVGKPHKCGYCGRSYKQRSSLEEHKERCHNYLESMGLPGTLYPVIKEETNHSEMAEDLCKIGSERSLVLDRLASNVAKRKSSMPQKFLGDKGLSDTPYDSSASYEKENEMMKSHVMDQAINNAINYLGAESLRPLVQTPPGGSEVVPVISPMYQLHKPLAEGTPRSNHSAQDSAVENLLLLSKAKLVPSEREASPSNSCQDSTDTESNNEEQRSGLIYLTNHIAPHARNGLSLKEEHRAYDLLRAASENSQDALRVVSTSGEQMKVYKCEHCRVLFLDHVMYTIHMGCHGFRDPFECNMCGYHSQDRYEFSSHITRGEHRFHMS
Chain of IKZF1 (Ikaros), recombinant;c-JUN, recombinant;c-FOS, recombinant (P05412 whole entry, chain 2 of 3): as the sequence (P05412 whole entry, chain 1 of 2) above
Chain of IKZF1 (Ikaros), recombinant;c-JUN, recombinant;c-FOS, recombinant (P01100 whole entry, chain 3 of 3): as the sequence (P01100 whole entry, chain 2 of 2) above

B1: IL10 CNS9 WT probe (dsDNA)
DNA 1: GAGGTTGCAGTTTCGTTGTGAGTCAGGCCTGCTGA
DNA 2: TCAGCAGGCCTGACTCACAACGAAACTGCAACCTC
binding result [1]: binds | binding result [2]: binds
